Experimental data reported in patent US9598497B2, “RSPO3 binding agents and uses thereof” (OncoMed Pharmaceuticals, Inc., priority 2012, dated 2017).

T1: binding of RSPO3 to LGR5 (Homo sapiens, UniProt Q9BXY4)
T1 construct: expressed in transfected cells; host or cells: HEK-293T
T1 sequence (Q9BXY4 22-272): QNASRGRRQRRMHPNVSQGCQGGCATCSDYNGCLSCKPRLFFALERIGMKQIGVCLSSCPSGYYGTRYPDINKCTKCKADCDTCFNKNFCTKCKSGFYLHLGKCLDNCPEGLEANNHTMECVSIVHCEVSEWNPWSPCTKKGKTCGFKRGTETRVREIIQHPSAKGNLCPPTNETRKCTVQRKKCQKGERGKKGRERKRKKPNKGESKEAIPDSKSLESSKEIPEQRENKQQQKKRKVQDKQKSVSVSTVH

T2: human RSPO3 (Homo sapiens, UniProt Q9BXY4)
T2 construct: purchased R&D Systems
T2 sequence (Q9BXY4 22-272): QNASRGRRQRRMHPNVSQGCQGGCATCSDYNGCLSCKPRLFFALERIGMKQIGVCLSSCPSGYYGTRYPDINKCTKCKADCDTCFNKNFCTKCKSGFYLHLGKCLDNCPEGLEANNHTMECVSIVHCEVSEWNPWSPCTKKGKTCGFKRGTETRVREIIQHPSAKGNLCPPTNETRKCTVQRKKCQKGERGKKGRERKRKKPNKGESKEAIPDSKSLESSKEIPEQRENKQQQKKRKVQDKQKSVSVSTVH


How the values were obtained:
OMP-LU102 lung tumor = assay: OMP-LU102 NSCLC xenograft growth; format: in vivo, NOD-SCID mice; conditions: antibody 25 mg/kg once a week, carboplatin 50 mg/kg once a week, FIG. 11A
Procedure: OMP-LU102 is a patient-derived non-small cell lung cancer (NSCLC) xenograft that was selected for testing based on a high level of RSPO3 expression in microarray data. OMP-LU102 lung tumor cells (1×10^5) were injected into NOD-SCID mice. […] Carboplatin was dosed at 50 mg/kg once a week.

OMP-LU25 lung tumor = OMP-LU25 lung tumor xenograft growth; format: in vivo, NOD/SCID mice; conditions: 25 mg/kg once a week intraperitoneal, vs control antibody, FIG. 7B
Procedure: In a study with a second lung tumor, dissociated OMP-LU25 lung tumor cells (5×10^4 cells) were injected into 6-8 week old NOD/SCID mice. Tumors were allowed to grow for 48 days until they reached an average volume of 110 mm^3. The mice were randomized (n=9 per group) and treated with anti-RSPO3 antibody 131R002 or a control antibody. […] Data are expressed as mean±S.E.M.
OMP-LU25 tumor cells (5×10^4) were injected into NOD-SCID mice. Tumors were allowed to grow for 33 days until they reached an average volume of 120 mm^3. Tumor-bearing mice were randomized into 4 groups (n=9 per group). Tumor-bearing mice were treated with either control antibody, anti-RSPO3 antibody 131R008, paclitaxel, or the combination of anti-RSPO3 antibody 131R008 and paclitaxel. Antibodies were dosed weekly at 20 mg/kg. Paclitaxel was dosed weekly at 15 mg/kg.

[1] = system: gene sets characteristic of normal stem cells or cancer stem cells; assay: Microarray gene set enrichment analysis of treated OMP-LU102 tumors; format: in vivo, NOD-SCID mice; conditions: RNA from OMP-LU102 tumors after treatment, FIG. 11B
Procedure: RNA was prepared from tumors from each of the four experimental groups following the treatment. Gene expression was characterized by microarray analysis.

[2] = system: OMP-LU45 non-small cell lung tumors; assay: OMP-LU45 lung tumor xenograft growth; format: in vivo, NOD/SCID mice; conditions: 25 mg/kg once a week intraperitoneal, vs control antibody, FIG. 7A
Procedure: In OMP-LU45 non-small cell lung tumors, it has been observed that CD201^+ cells are more tumorigenic than CD201^− cells. […] Dissociated and sorted OMP-LU45 CD44^+CD201^+ lung tumor cells (5×10^4 cells) were injected into 6-8 week old NOD/SCID mice. Tumors were allowed to grow for 38 days until they reached an average volume of 140 mm^3. The mice were randomized (n=10 per group) and treated with anti-RSPO3 antibody 131R002 or a control antibody. […] Data are expressed as mean±S.E.M.

[3] = system: RSPO3-induced β-catenin signaling; assay: TOPflash 6xTCF-luciferase reporter assay in HEK-293 cells with WNT3a and RSPO3; format: cell-based, human
Procedure: HEK-293 cells were transfected with a 6×TCF-luciferase reporter vector (TOPflash, Millipore, Billerica, Mass.). After 24-48 hrs, the transfected HEK-293 cells were incubated with a combination of WNT3a (5 ng/ml) and human RSPO3 (10 ng/ml, R&D BioSystems, Minneapolis, Minn.) in the presence of anti-RSPO3 antibodies 131R002 and 131R003. Antibodies 131R002 and 131R003 were added to the cells in 4-fold serial dilutions from 20 μg/ml to 0.02 μg/ml. As controls, cells were incubated with a combination of WNT3a and RSPO3, WNT3a only, RSPO3 only, or with no addition. The cells were incubated for 16 hours and luciferase activity was measured using Steady-Glo® Luciferase Assay System according to the manufacturer's instructions (Promega, Madison, Wis.).
HEK-293 cells were transfected with a 6×TCF-luciferase reporter vector (TOPflash, Millipore, Billerica, Mass.). After 24-48 hrs, the transfected HEK-293 cells were incubated with a combination of WNT3a and human RSPO3 in the presence of anti-RSPO3 antibodies 131R003, 131R003 CDR1 variant and 131R003 CDR3 variant. 131R003, 131R003 CDR1 variant, and 131R003 CDR3 variant were added to the cells in 5-fold serial dilutions from 20 μg/ml to 0.006 μg/ml. As controls, cells were incubated with a combination of WNT3a and RSPO3, WNT3a only, RSPO3 only, a control antibody, or with no addition. The cells were incubated for 16 hours and luciferase activity was measured using Steady-Glo® Luciferase Assay System according to the manufacturer's instructions (Promega, Madison, Wis.).
HEK-293 cells were transfected with a 6×TCF-luciferase reporter vector (TOPflash, Millipore, Billerica, Mass.). After 24-48 hrs, the transfected HEK-293 cells were incubated with a combination of WNT3a conditioned medium (5 ng/ml) and human RSPO3 (10 ng/ml, R&D BioSystems) in the presence of anti-RSPO3 antibodies 131R002, 131R006B, or 131R007. Antibodies 131R002, 131R006 or 131R007 were added to the cells in 5-fold serial dilutions from 20 μg/ml to 0.0064 μg/ml. As controls, cells were incubated with WNT3a conditioned medium alone, a combination of WNT3a conditioned medium and human RSPO3, or with no addition to cells. The cells were incubated for 16 hours and luciferase activity was measured using Steady-Glo® Luciferase Assay System according to the manufacturer's instructions (Promega, Madison, Wis.).
HEK-293 cells were transfected with a 6×TCF-luciferase reporter vector (TOPflash, Millipore, Billerica, Mass.). […] The cells were incubated for 16 hours and luciferase activity was measured using Steady-Glo® Luciferase Assay System according to the manufacturer's instructions (Promega, Madison, Wis.).

binding of RSPO3 to LGR5 = molecular target: T1, binding of RSPO3 to LGR5; assay: FACS inhibition of RSPO3-biotin binding to LGR5-expressing HEK-293T cells; conditions: PE-streptavidin, flow cytometry, FIG. 9
Procedure: HEK-293T cells were transfected with a cDNA expression vector that encoded the extracellular domain of human LGR5 (FLAG-LGR5-CD4TM-GFP). Transfected cells were incubated with recombinant RSPO3-biotin fusion protein in the presence of anti-RSPO3 antibodies 131R006B or 131R007. Cells were incubated without antibody as a control. Cells were washed in PBS and binding of RSPO3 to LGR5-expressing transfected cells was determined by addition of PE-conjugated streptavidin and analysis by flow cytometry.

human RSPO3 = molecular target: T2, human RSPO3; assay: Biacore 2000 affinity, antibody captured by anti-human IgG, RSPO3 injected (Example 10); format: binding; conditions: human RSPO3 300 nM to 37.5 nM over captured antibody, Table 4
Procedure: The method used was different than described in Example 3. A goat anti-human IgG antibody was coupled to a carboxymethyl-dextran (CM5) SPR chip using standard amine-based chemistry (NHS/EDC) and blocked with ethanolamine. Antibodies (purified antibody or culture supernatant) were diluted to a concentration of 10 μg/ml in HBS-P-BSA (0.01M HEPES pH7.4, 0.15M NaCl, 0.005% v/v Polysorbate 20, 100 ug/ml BSA) and captured onto the chip via the anti-human IgG antibody. Human RSPO3 (R&D Systems) was serially diluted 2-fold from 300 nM to 37.5 nM in HBS-P-BSA and injected sequentially over the captured anti-RSPO3 antibodies. RSPO3 association and dissociation was measured at each concentration. After each antigen injection 5 μl of 100 mM H3P04 was injected to remove the antigen-antibody complex and a subsequent injection performed. Kinetic data were collected over time and were fit using the simultaneous global fit equation to yield affinity constants (KD values) for each antibody (Table 4).

Molecule | OMP-LU102 lung tumor growth (OMP-LU102 lung tumor) | OMP-LU25 lung tumor growth (OMP-LU25 lung tumor) | expression of gene sets characteristic of normal stem cells or cancer stem cells [1] | OMP-LU45 lung tumor growth [2] | RSPO3-induced β-catenin signaling ([3]; WNT3a 5 ng/ml + RSPO3 10 ng/ml, antibody 20 to 0.02 μg/ml, FIG. 3) | blocking binding of RSPO3 to LGR5-expressing cells (binding of RSPO3 to LGR5) | Kd (human RSPO3) [nM] | ability to inhibit β-catenin activity compared with 131R002 ([3]; WNT3a conditioned medium 5 ng/ml + human RSPO3 10 ng/ml, FIG. 8)
131R002: anti-RSPO3 antibody from a mammalian cell antibody library; heavy chain variable region SEQ ID NO:15, light chain variable region SEQ ID NO:17 (antibody, V domains shown, 131R002 Heavy chain variable region; 131R002/131R003 Light chain variable region) VH: QVQLQESGPELVKPGASVKISCKASGYTFTDYSIHWVKQNHGKSLDWIGYIYPSNGDSGYNQKFKNRATLTVDTSSSTAYLEVRRLTFEDSAVYYCATYFANYFDYWGQGTTLTVSSAST VL: DIVLTQSPASLAVSLGQRATISCKASQSVDYDGDSYMNWYQQKPGQPPKLLIYAASNLESGIPARFSGSGSGTDFTLNIHPVEEEDAATYYCQQSNEDPLTFGAGTKLELKR | inhibited OMP-LU102 lung tumor growth as a single agent | inhibited growth | inhibited the expression of various gene sets characteristic of normal stem cells or cancer stem cells | inhibited growth | reduced RSPO3-induced β-catenin signaling in a dose-dependent manner | – | – | –
h131R007: humanized 131R003 variant, IgG2; heavy chain variable region SEQ ID NO:44, light chain variable region SEQ ID NO:72 (antibody, V domains shown, Humanized 131R005/131R007/131R008/ 131R010/131R011 Heavy chain variable region; Humanized 131R005/131R007/131R008 Light chain variable region) VH: QVQLVQSGAEVKKPGASVKVSCKASGYTFTDYSIHWVRQAPGQGLEWIGYIYPSNGDSGYNQKFKNRVTMTRDTSTSTAYMELSRLRSEDTAVYYCATYFANNFDYWGQGTTLTVSS VL: DIVLTQSPASLAVSLGQRATITCKASQSVDYDGDSYMNWYQQKPGQPPKLLIYAASNLESGIPARFSGSGSGTDFTLTINPVEAEDVATYYCQQSNEDPLTFGAGTKLELKR | – | – | – | – | – | highly effective in blocking binding of RSPO3 to LGR5-expressing cells | 0.654 | greater ability to inhibit β-catenin activity than antibody 131R002
